The values that follow come from patent publication US20230346885A1 (published 2023).

Common to all, as to assay: binding, other
Test [1] deals with T1, KLK4 peptide on HLA (human).
T1 peptide: FQNSYTIGL

Test [2] has as its target T2, MAGEC1 peptide on HLA (human).
T2 peptide: FLAMLKNTV

The next test addresses T3, NPSR1 peptide on HLA (human).
T3 peptide: VIIQNLPAL

The target of another test is T4, MAGEB2 peptide on HLA (human).
T4 peptide: KVLEFLAKV

Test [3] has as its target T5, NR0B1 peptide on HLA (human).
T5 peptide: GLPGGRPVAL

The target of test [4] is T6, MAGEC1 peptide on HLA (human).
T6 peptide: ILQSSPESA

The target of test [5] is T7, NR0B1 peptide on HLA (human).
T7 peptide: GLLKTLRFV

In test [6] the target is T8, KLK4 peptide on HLA (human).
T8 peptide: KLYDPLYHPSM

Substitutions are numbered along the chain they refer to.

B1: TCR of SEQ ID NOs 407 and 408 (TCR, V domains shown)
Valpha: KQEVTQIPAALSVPEGENLVLNCSFTDSAIYNLQWFRQDPGKGLTSLLLIQSSQREQTSGRLNASLDKSSGRSTLYIAASQPGDSATYLCAVRSYNTDKLIFGTGTRLQVFP
Vbeta: NAGVTQTPKFRILKIGQSMTLQCTQDMNHNYMYWYRQDPGMGLKLIYYSVGAGITDKGEVPNGYNVSRSTTEDFPLRLELAAPSQTSVYFCASSYSSWTEAFFGQGTRLTVV
For B1, in the test with KLK4 peptide on HLA [1], the binding result is “recognises”.

B2: TCR of SEQ ID NOs 435 and 436 (TCR, V domains shown)
Valpha: B1 Valpha with V92A, R93L
Vbeta: NAGVTQTPKFRVLKTGQSMTLLCAQDMNHEYMYWYRQDPGMGLRLIHYSVGEGTTAKGEVPDGYNVSRLKKQNFLLGLESAAPSQTSVYFCASKDIPYTEAFFGQGTRLTVV
Regarding B2, the binding result with MAGEC1 peptide on HLA [2] is on record as “recognises”.

B3: TCR of SEQ ID NOs 409 and 410 (TCR, V domains shown)
Valpha: B1 Valpha with R93T, S94A
Vbeta: NAGVTQTPKFRILKIGQSMTLQCTQDMNHNYMYWYRQDPGMGLKLIYYSVGAGITDKGEVPNGYNVSRSTTEDFPLRLLSAAPSQTSVYFCASSYYPGTSTEAFFGQGTRLTVV
Turning to B3, the binding result with KLK4 peptide on HLA [1] is given as “recognises”.

B4: TCR of SEQ ID NOs 443 and 444 (TCR, V domains shown)
Valpha: QKEVEQNSGPLSVPEGAIASLNCTYSDRGSQSFFWYRQYSGKSPELIMSIYSNGDKEDGRFTAQLNKASQYVSLLIRDSQPSDSATYLCAVNDSWGKLQFGAGTQVVVTP
Vbeta: DGGITQSPKYLFRKEGQNVTLSCEQNLNHDAMYWYRQDPGQGLRLIYYSQIVNDFQKGDIAEGYSVSREKKESFPLTVTSAQKNPTAFYLCASSMVPGFSEQFFGPGTRLTVL
Turning to B4, the binding result in the test with NPSR1 peptide on HLA was “recognises”.

B5: TCR of SEQ ID NOs 447 and 448 (TCR, V domains shown)
Valpha: B4 Valpha with N92S, D93A, S94A, W95G, G96N, Q99T, A102G, Q105R, V107L, T109K
Vbeta: NAGVTQTPKFRILKIGQSMTLQCTQDMNHNYMYWYRQDPGMGLKLIYYSAGAGITDKGEVPNGYNVSRSTTEDFPLRLELAAPSQTSVYFCASSYFGEQYFGPGTRLTVT
On to B5, for which the binding result in the test with NPSR1 peptide on HLA is reported as “recognises”.

B6: TCR of SEQ ID NOs 421 and 422 (TCR, V domains shown)
Valpha: KQEVTQIPAALSVPEGENLVLNCSFTDSAIYNLQWFRQDPGKGLTSLLLIQSSQREQTSGRLNASLDKSSGRSTLYIAASQPGDSATYLCAVESDDYKLSFGAGTTVTVRA
Vbeta: NAGVTQTPKFQVLKTGQSMTLQCAQDMNHNSMYWYRQDPGMGLRLIYYSASEGTTDKGEVPNGYNVSRLNKREFSLRLESAAPSQTSVYFCASSEALGGVTDTQYFGPGTRLTVL
In the case of B6, the binding result with MAGEB2 peptide on HLA is given as “recognises”.

B7: TCR of SEQ ID NOs 457 and 458 (TCR, V domains shown)
Valpha: KQEVTQIPAALSVPEGENLVLNCSFTDSAIYNLQWFRQDPGKGLTSLLLIQSSQREQTSGRLNASLDKSSGRSTLYIAASQPGDSATYLCAVSGYSTLTFGKGTMLLVSP
Vbeta: NAGVTQTPKFRVLKTGQSMTLLCAQDMNHEYMYWYRQDPGMGLRLIHYSVGEGTTAKGEVPDGYNVSRLKKQNFLLGLESAAPSQTSVYFCASTGGGPPLNTEAFFGQGTRLTVV
Regarding B7, in the test with NR0B1 peptide on HLA [3], the binding result was “recognises”.

B8: TCR of SEQ ID NOs 445 and 446 (TCR, V domains shown)
Valpha: KQEVTQIPAALSVPEGENLVLNCSFTDSAIYNLQWFRQDPGKGLTSLLLIQSSQREQTSGRLNASLDKSSGRSTLYIAASQPGDSATYLCAVSPVTSYDKVIFGPGTSLSVIP
Vbeta: NAGVTQTPKFRVLKTGQSMTLLCAQDMNHEYMYWYRQDPGMGLRLIYYSASEGTTDKGEVPNGYNVSRLNKREFSLRLESAAPSQTSVYFCASSYSWFGDGTEAFFGQGTRLTVV
For the molecule B8, in the test with NPSR1 peptide on HLA, the binding result is “recognises”.

B9: TCR of SEQ ID NOs 425 and 426 (TCR, V domains shown)
Valpha: KQEVTQIPAALSVPEGENLVLNCSFTDSAIYNLQWFRQDPGKGLTSLLLIQSSQREQTSGRLNASLDKSSGRSTLYIAASQPGDSATYLCAVRDDYKLSFGAGTTVTVRA
Vbeta: NAGVTQTPKFRVLKTGQSMTLLCAQDMNHEYMYWYRQDPGMGLRLIHYSVGEGTTAKGEVPDGYNVSRLKKQNFLLGLESAAPSQTSVYFCASSYGPGQIYGYTFGSGTRLTVV
Turning to B9, in the test with MAGEC1 peptide on HLA [4], the binding result is listed as “recognises”.

B10: TCR of SEQ ID NOs 427 and 428 (TCR, V domains shown)
Valpha: B9 Valpha with D94N
Vbeta: B9 Vbeta with S107P, V114L
Turning to B10, the binding result in the test with MAGEC1 peptide on HLA [4] is reported as “recognises”.

B11: TCR of SEQ ID NOs 431 and 432 (TCR, V domains shown)
Valpha: B7 Valpha with S93G, S96N, T97K, T99I, K102A, M105R, L107A, S109H
Vbeta: NAGVTQTPKFQVLKTGQSMTLQCAQDMNHNSMYWYRQDPGMGLRLIYYSASEGTTDKGEVPNGYNVSRSTTEDFPLRLLSAAPSQTSVYFCASSLDPLAEAFFGQGTRLTVV
As to B11, the binding result with MAGEC1 peptide on HLA [2] is “recognises”.

B12: TCR of SEQ ID NOs 449 and 450 (TCR, V domains shown)
Valpha: KQEVTQIPAALSVPEGENLVLNCSFTDSAIYNLQWFRQDPGKGLTSLLLIQSSQREQTSGRLNASLDKSSGRSTLYIAASQPGDSATYLCAVRPGDSWGKLQFGAGTQVVVTP
Vbeta: NAGVTQTPKFQVLKTGQSMTLQCAQDMNHEYMSWYRQDPGMGLKLIYYSVGAGITDKGEVPNGYNVSRSTTEDFPLRLLSAAPSQTSVYFCASSSPVGTAFFGQGTRLTVV
In the case of B12, the binding result with NR0B1 peptide on HLA [5] is given as “recognises”.

B13: TCR of SEQ ID NOs 451 and 452 (TCR, V domains shown)
Valpha: KQEVTQIPAALSVPEGENLVLNCSFTDSAIYNLQWFRQDPGKGLTSLLLIQSSQREQTSGRLNASLDKSSGRSTLYIAASQPGDSATYLCAVGTDSWGKFQFGAGTQVVVTP
Vbeta: NAGVTQTPKFQVLKTGQSMTLQCAQDMNHEYMSWYRQDPGMGLRLIHYSVGAGITDQGEVPNGYNVSRSTTEDFPLRLLSAAPSQTSVYFCASSYSVDSPLHFGNGTRLSVL
Take B13: in the test with NR0B1 peptide on HLA [5], the binding result is “recognises”.

B14: TCR of SEQ ID NOs 429 and 430 (TCR, V domains shown)
Valpha: KQEVTQIPAALSVPEGENLVLNCSFTDSAIYNLQWFRQDPGKGLTSLLLIQSSQREQTSGRLNASLDKSSGRSTLYIAASQPGDSATYLCAVRPFSGGYNKLIFGAGTRLAVHP
Vbeta: NAGVTQTPKFQVLKTGQSMTLQCTQDMNHNYMYWYRQDPGMGLKLIYYSVGAGITDQGEVPNGYNVSRSTTEDFPLRLLSAAPSQTSVYFCASSPEYGYYEQYFGPGTRLTVT
B14: in the test with MAGEC1 peptide on HLA [4], the binding result is given as “recognises”.

B15: TCR of SEQ ID NOs 433 and 434 (TCR, V domains shown)
Valpha: KQEVTQIPAALSVPEGENLVLNCSFTDSAIYNLQWFRQDPGKGLTSLLLIQSSQREQTSGRLNASLDKSSGRSTLYIAASQPGDSATYLCAVESGNQFYFGTGTSLTVIP
Vbeta: NAGVTQTPKFQVLKTGQSMTLQCAQDMNHEYMSWYRQDPGMGLRLIHYSVGVGITDQGEVPNGYNVSRSTTEDFPLRLLSAAPSQTSVYFCASSFGQGSSPLHFGNGTRLTVT
For B15, the binding result in the test with MAGEC1 peptide on HLA [2] was “recognises”.

B16: TCR of SEQ ID NOs 455 and 456 (TCR, V domains shown)
Valpha: B7 Valpha with S93R, S96Q, T97K, L98V, K102T, M105K, L107Q, S109I
Vbeta: B12 Vbeta with K44R, Y47H, K57Q, S93T, S95G, P96L, V97N, G98T, T99E
Consider B16, for which the binding result with NR0B1 peptide on HLA [3] is given as “recognises”.

B17: TCR of SEQ ID NOs 419 and 420 (TCR, V domains shown)
Valpha: KQEVTQIPAALSVPEGENLVLNCSFTDSAIYNLQWFRQDPGKGLTSLLLIQSSQREQTSGRLNASLDKSSGRSTLYIAASQPGDSATYLCAVSGGTTDSWGKLQFGAGTQVVVTP
Vbeta: NAGVTQTPKFQVLKTGQSMTLQCAQDMNHEYMSWYRQDPGMGLRLIHYSVGAGITDQGEVPNGYNVSRSTTEDFPLRLLSAAPSQTSVYFCASSFTPYEGYTFGSGTRLTVV
Take B17: the binding result with MAGEB2 peptide on HLA is listed as “recognises”.

B18: TCR of SEQ ID NOs 453 and 454 (TCR, V domains shown)
Valpha: B13 Valpha
Vbeta: B17 Vbeta with T96S, Y98N, E99T, G100E, Y101A, T102F, S105Q
On to B18, for which the binding result with NR0B1 peptide on HLA [5] is “recognises”.

B19: TCR of SEQ ID NOs 423 and 424 (TCR, V domains shown)
Valpha: B17 Valpha with T96A
Vbeta: B17 Vbeta with F95Y, T96S, Y98W, E99T, G100E, Y101A, T102F, S105Q
As to B19, the binding result with MAGEB2 peptide on HLA is listed as “recognises”.

B20: TCR of SEQ ID NOs 459 and 460 (TCR, V domains shown)
Valpha: B7 Valpha with V92A
Vbeta: B17 Vbeta with S94R, F95L, T96G, P97Q, Y98F, E99G, G100Q, Y101A, T102F, S105Q
With B20, the binding result with NR0B1 peptide on HLA [3] is listed as “recognises”.

B21: TCR of SEQ ID NOs 399 and 400 (TCR, V domains shown)
Valpha: KQEVTQIPAALSVPEGENLVLNCSFTDSAIYNLQWFRQDPGKGLTSLLLIRSSQREQTSGRLNASLDKSSGRSTLYIAASQPGDSATYLCAVMSSQGGSEKLVFGKGTKLTVNP
Vbeta: NAGVTQTPKFRVLKTGQSMTLLCAQDMNHEYMYWYRQDPGMGLRLIHYSVGEGTTAKGEVPDGYNVSRLKKQNFLLGLESAAPSQTSVYFCASKGLVADTIYFGEGSWLTVV
As to B21, the binding result with KLK4 peptide on HLA [6] is “recognises”.

B22: TCR of SEQ ID NOs 411 and 412 (TCR, V domains shown)
Valpha: KQEVTQIPAALSVPEGENLVLNCSFTDSAIYNLQWFRQDPGKGLTSLLLIQSSQREQTSGRLNASLDKSSGRSTLYIAASQPGDSATYLCAVSGGSYIPTFGRGTSLIVHP
Vbeta: NAGVTQTPKFRVLKTGQSMTLLCAQDMNHEYMYWYRQDPGMGLRLIHYSVGEGTTDKGEVPDGYNVSRSTTEDFPLRLLSAAPSQTSVYFCASRKAGYGYTFGSGTRLTVV
As for B22, the binding result with KLK4 peptide on HLA [1] is listed as “recognises”.
